Assay results published in article PMC11580989.

Molecular target: Rad52^ΔN* (Saccharomyces cerevisiae)
Test: mass photometry

**Q.** For “Saccharomyces cerevisiae Rad51 (from UniProt P25454 1-400) (natural protein)”, which stoichiometry N is on record?
**A.** 1
